ChEMBL document CHEMBL2074463, “Characterization of the hepatic canalicular membrane transport of a model oligopeptide: ditekiren” (J Pharmacol Exp Ther, 1997)

Test system: CC[C@H](C)[C@H](NC(=O)[C@@H](C[C@H](O)[C@H](CC(C)C)NC(=O)[C@H](Cc1c[nH]cn1)N(C)C(=O)[C@H](Cc1ccccc1)NC(=O)[C@@H]1CCCN1C(=O)OC(C)(C)C)C(C)C)C(=O)NCc1ccccn1
Experiment: TP_TRANSPORTER: uptake, inhibited by Cyclosporine, Nicardipine, Daunomycin, Verapamil, Reserpine, Rhodamine 123 and Vinblastine in bile canalicular membrane vesicles
Type: functional, cell membranes
Settings: Rattus norvegicus; Bile canalicular membrane vesicle

## Multidrug resistance protein 1a (Rattus norvegicus), Q6PSM0
  Km: 19.1 µM
